The values that follow come from article PMC10304930.

Assay [1] deals with tagged main protease from SARS-CoV with 34 extra amino acids at the N-terminus (SARS-CoV) (UniProt P0C6X7).
Assay [2] addresses authentic main protease (M^pro) from SARS-CoV, without tag (SARS-CoV) (UniProt P0C6X7). Briefly: SEC; […]; 40 mM Tris-HCl, 100 mM NaCl, 1 mM DTT, pH 8.0; 0.5 mL/min; […]. A general note: Size exclusion chromatography separates by hydrodynamic size, large species first.
Assay [3] has the same target.

By stoichiometry N is commonly meant the number of molecules, sites or subunits per partner or assembly.

Take “tagged main protease from SARS-CoV with 34 extra amino acids at the N-terminus (from UniProt P0C6X7) (enzyme)”: the kcat/Km, FRET-based cleavage assay (Dabcyl/Edans peptide substrate) in assay [1] worked out at 17 M⁻¹ s⁻¹.

“authentic main protease (M^pro) from SARS-CoV, without tag (from UniProt P0C6X7) (enzyme)” had a stoichiometry N in assay [2] of 2. Besides, the kcat/Km, FRET-based cleavage assay (Dabcyl/Edans peptide substrate) in assay [3] came out at 2790 M⁻¹ s⁻¹.
